Results published in article PMC1635243.

Target: recombinant T2 domain of xNAP1 (Xenopus nucleosome assembly protein), residues 38-282, histidine tagged (Xenopus laevis)
Assay: AUC

Work on “recombinant T2 domain of xNAP1 (Xenopus nucleosome assembly protein), residues 38-282, histidine tagged (domain or fragment)” yielded a stoichiometry N of 12 to 16 subunits.
